The values below come from patent US20230357429A1 (JANUX THERAPEUTICS, published 2023).

Where no end group is shown, it is not given here. A value given as a limit tells only on which side of the number the result lay.

One test addresses T1, TBD-1 wt.
T1 construct: Fab; the heavy chain entry is VH-CH1; also called wild-type anti-TROP2 Fab (hRS7); TROP2 Fab
Kind of test: competition ELISA, peptide vs Fab binding to captured biotin-TROP2. A general note: ELISA stands for enzyme-linked immunosorbent assay.

A further test deals with T2, Human TROP2 Full length (human, UniProt P09758 31-323).
T2 sequence: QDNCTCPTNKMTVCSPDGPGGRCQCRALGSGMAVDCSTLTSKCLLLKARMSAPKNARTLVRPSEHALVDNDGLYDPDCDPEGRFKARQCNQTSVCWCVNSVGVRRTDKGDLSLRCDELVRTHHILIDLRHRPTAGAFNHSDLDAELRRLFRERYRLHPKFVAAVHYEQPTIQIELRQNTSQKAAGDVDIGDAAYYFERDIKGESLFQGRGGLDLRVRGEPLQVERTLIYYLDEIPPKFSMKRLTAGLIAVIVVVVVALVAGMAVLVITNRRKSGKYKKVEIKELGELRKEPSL
In words: cell-based or functional assay.

The target in another test is T3, Cyno TROP2 Full length (cynomolgus monkey, UniProt P09758 31-323 (human entry)).
T3 chain: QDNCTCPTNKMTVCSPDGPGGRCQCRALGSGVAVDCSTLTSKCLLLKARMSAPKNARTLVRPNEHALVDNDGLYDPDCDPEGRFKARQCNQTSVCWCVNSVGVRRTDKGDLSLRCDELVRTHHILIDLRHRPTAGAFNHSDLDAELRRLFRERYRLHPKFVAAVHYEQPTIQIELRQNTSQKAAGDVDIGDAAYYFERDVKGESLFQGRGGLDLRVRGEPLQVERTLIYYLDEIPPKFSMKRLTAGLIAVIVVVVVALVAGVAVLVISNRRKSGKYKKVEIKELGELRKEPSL
Kind of test: cell-based or functional assay.

Test [1] deals with T4, Human TROP2 ECD (31-274 AA) (human, UniProt P09758 31-274, biotinylated).
T4 construct: also called biotinylated TROP2; TROP2-biotin
T4 sequence: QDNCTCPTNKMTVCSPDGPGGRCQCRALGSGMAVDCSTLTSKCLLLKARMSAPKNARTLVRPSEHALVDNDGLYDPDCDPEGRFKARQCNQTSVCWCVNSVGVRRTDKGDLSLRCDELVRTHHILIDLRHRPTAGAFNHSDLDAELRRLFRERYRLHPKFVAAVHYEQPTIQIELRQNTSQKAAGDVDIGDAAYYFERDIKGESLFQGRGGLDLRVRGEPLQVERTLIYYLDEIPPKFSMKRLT
In words: ELISA; biotinylated TROP2 on neutravidin plates, PC titrated, HRP secondary.

In another test the target is T5, TBD-21 (HC F108A).
T5 construct: Fab; also called HC F108A mutant
In words: competition ELISA, peptide vs Fab binding to captured biotin-TROP2.

The target of test [2] is T6, TBD-17 (HC S104A).
T6 construct: Fab; also called HC S104A mutant
The test is described as above.

Test [3] deals with T7, TBD-22 (HC D109A).
T7 construct: Fab; also called HC D109A mutant
The test is described as above.

The target of test [4] is T8, TBD-11 (HC R98A).
T8 construct: Fab; also called HC R98A mutant
The test is described as above.

A further test has as its target T9, TBD-6 (LC I93A).
T9 construct: anti-TROP2 Fab, CDR3 LC alanine mutant
In words: competition ELISA, Fab on captured TROP2.

Test [5] has as its target T10, TBD-17 (HC S104A).
T10 construct: anti-TROP2 Fab, CDR3 HC alanine mutant
Kind of test: competition ELISA, Fab on captured TROP2.

In test [6] the target is T11, TBD-11 (HC R98A).
T11 construct: anti-TROP2 Fab, CDR3 HC alanine mutant
Kind of test: competition ELISA, Fab on captured TROP2.

The target in test [7] is T12, TBD-1 wt (anti-TROP2 Fab, hRS7).
T12 construct: non-mutated Fab
In words: competition ELISA, Fab on captured TROP2.

The target in test [8] is T13, TBD-22 (HC D109A).
T13 construct: anti-TROP2 Fab, CDR3 HC alanine mutant
In words: competition ELISA, Fab on captured TROP2.

One may read the IC50 as the concentration at which inhibition is half-maximal. A low value points to inhibition by little substance. Take DNLICVKNLWCWIA (cysteine pairing not given here; also: biotinylated, site not given here) [Peptide-26]: in the test with TBD-1 wt, the IC50 turned out to be 2230 nM.
SVLFCVKNLYCWVT (cysteine pairing not given here; also: biotinylated (site not given here)) [Peptide-24]: in the test with TBD-1 wt, the 50% inhibitory concentration (IC50) was determined as 2780 nM.
In the case of VDFCSFYRWPICET (cysteine pairing not given here; also: biotinylated (site not given here)) [Peptide-20], the IC50 in the test with TBD-1 wt worked out at 1610 nM.
In turn, NYLLCVKNLYCWIV (cysteine pairing not given here; also: biotinylated, site not given here) [Peptide-28] displayed an IC50 in the test with TBD-1 wt of 1630 nM.

B1: PC-48 (bispecific antibody)
light: GGVDFCALYHWPICYQGGGGSGGGSGGSGGASSGAGGSGGGSDIQLTQSPSSLSASVGDRVSITCKASQDVSIAVAWYQQKPGKAPKLLIYSASYRYTGVPDRFSGSGSGTDFTLTISSLQPEDFAVYYCQQHYITPLTFGAGTKVEIKRTVAAPSVFIFPPSDEQLKSGTASVVCLLNNFYPREAKVQWKVDNALQSGNSQESVTEQDSKDSTYSLSSTLTLSKADYEKHKVYACEVTHQGLSSPVTKSFNRGEC
heavy: not shown
notes: Masked polypeptide complex with non-cleavable linker: anti-TROP2 F108A, anti-CD3 wt
As a reminder, the EC50 is the concentration at which the effect is half-maximal. A high value points to weaker potency. Turning to B1, in the test with Human TROP2 Full length, the “H292 Cytotoxicity EC50 (pM)” value was over 100000 pM and the “HCT116 Cytotoxicity EC50 (pM)” value is over 100000 pM. In addition, the “CyTROP2 HEK293 EC50 (pM)” value in the test with Cyno TROP2 Full length was determined as 69900 pM. In addition, a half-maximal response in test [1] (EC50) required 3960 nM.
For PDFCAVYRWPICYQ (cysteine pairing not given here; also: biotinylated, site not given here) [Peptide-64], the IC50 with TBD-21 (HC F108A) came to 1630 nM; in the test with TBD-17 (HC S104A) [2] it was 1600 nM; in the test with TBD-22 (HC D109A) [3], 120 nM; in the test with TBD-11 (HC R98A) [4], 1780 nM.
Take VDFCYQYGWPICSRVD (mask peptide for the TROP2 Fab) [Peptide-45]: the IC50 came to 14500 nM with TBD-6 (LC I93A); 39600 nM with TBD-17 (HC S104A) [5]; 409000 nM in the test with TBD-11 (HC R98A) [6]; 9290 nM in [7]; 2500 nM with TBD-22 (HC D109A) [8].
In turn, YSLVCVKNLYCWNL (cysteine pairing not given here; also: biotinylated, site not given here) [Peptide-31] gave an IC50 with TBD-1 wt of 2940 nM.
Take VEICKQWFYTVCLS (mask peptide for the TROP2 Fab) [Peptide-58]: the IC50 with TBD-11 (HC R98A) [6] was determined as 1130 nM.
Take VDFCYQYAWPVCSTGD (mask peptide for the TROP2 Fab) [Peptide-52]: the IC50 was 12300 nM with TBD-6 (LC I93A); 15700 nM with TBD-17 (HC S104A) [5]; 19100 nM in the test with TBD-11 (HC R98A) [6]; 14300 nM in test [7]; 890 nM with TBD-22 (HC D109A) [8].

B2: PC-49 (bispecific antibody)
light: GGVDFCALYHWPICYQGGGSGGSGGISSGLLSGRSDAGSGGSDIQLTQSPSSLSASVGDRVSITCKASQDVSIAVAWYQQKPGKAPKLLIYSASYRYTGVPDRFSGSGSGTDFTLTISSLQPEDFAVYYCQQHYITPLTFGAGTKVEIKRTVAAPSVFIFPPSDEQLKSGTASVVCLLNNFYPREAKVQWKVDNALQSGNSQESVTEQDSKDSTYSLSSTLTLSKADYEKHKVYACEVTHQGLSSPVTKSFNRGEC
heavy: not shown
notes: Masked polypeptide complex with CL2 cleavable linker: anti-TROP2 F108A, anti-CD3 wt
For the molecule B2, in the test with Human TROP2 Full length, the “H292 Cytotoxicity EC50 (pM)” value was determined as 67400 pM and the “HCT116 Cytotoxicity EC50 (pM)” value was over 100000 pM. In the test with Cyno TROP2 Full length, the “CyTROP2 HEK293 EC50 (pM)” value is 10600 pM. This molecule also showed an EC50 in test [1] of 1360 nM.
On to VDFCYQYGWPICSRLY (mask peptide for the TROP2 Fab) [Peptide-47], for which the IC50 with TBD-6 (LC I93A) stood at 7540 nM; with TBD-17 (HC S104A) [5], 27200 nM; with TBD-11 (HC R98A) [6], 46200 nM; in test [7], 6480 nM; with TBD-22 (HC D109A) [8], 2010 nM.
For the molecule IDFCLIYNWPVCDT (cysteine pairing not given here; also: biotinylated, site not given here) [Peptide-63], the IC50 with TBD-21 (HC F108A) stood at 5890 nM; with TBD-17 (HC S104A) [2] it was 1400 nM; in the test with TBD-22 (HC D109A) [3], 110 nM; in the test with TBD-11 (HC R98A) [4], 6810 nM.
FSLVCVRNLYCWNV (cysteine pairing not given here; also: biotinylated, site not given here) [Peptide-27]: in the test with TBD-1 wt, the IC50 is 740 nM. That is a sub-micromolar value.
TSLICFRNVYCWNV (cysteine pairing not given here; also: biotinylated, site not given here) [Peptide-30]: the IC50 with TBD-1 wt was determined as 1910 nM.
Consider VEFCKQWTWFGCMT (mask peptide for the TROP2 Fab) [Peptide-44], for which the IC50 with TBD-11 (HC R98A) [6] is 3550 nM.

B3: PC-33 (bispecific antibody)
light: GGVDFCALYHWPICYQGGGGSGGLSGRSDAGSPLGLAGSGGSDIQLTQSPSSLSASVGDRVSITCKASQDVSIAVAWYQQKPGKAPKLLIYSASYRYTGVPDRFSGSGSGTDFTLTISSLQPEDFAVYYCQQHYITPLTFGAGTKVEIKRTVAAPSVFIFPPSDEQLKSGTASVVCLLNNFYPREAKVQWKVDNALQSGNSQESVTEQDSKDSTYSLSSTLTLSKADYEKHKVYACEVTHQGLSSPVTKSFNRGEC
heavy: not shown
notes: Masked polypeptide complex: anti-TROP2 F108A, anti-CD3 wt; CD3 mask …
In the case of B3, the “H292 Cytotoxicity EC50 (pM)” value in the test with Human TROP2 Full length was found to be 13200 pM. Moreover, the “CyTROP2 HEK293 EC50 (pM)” value with Cyno TROP2 Full length worked out at 837 pM. Also, in [1], the EC50 turned out to be 574 nM.

B4: PC-40 (bispecific antibody)
light: GGVDFCALYHWPICYQGGGGSGGLSGRSDAGSPLGLAGSGGSDIQLTQSPSSLSASVGDRVSITCKASQDVSIAVAWYQQKPGKAPKLLIYSASYRYTGVPDRFSGSGSGTDFTLTISSLQPEDFAVYYCQQHYITPLTFGAGTKVEIKRTVAAPSVFIFPPSDEQLKSGTASVVCLLNNFYPREAKVQWKVDNALQSGNSQESVTEQDSKDSTYSLSSTLTLSKADYEKHKVYACEVTHQGLSSPVTKSFNRGEC
heavy: EVQLVESGGGLVQPGGSLRLSCAASGSTFYTAVMGWVRQAPGKGLEWVAAIRWTALTTSYADSVKGRFTISRDGAKTTLYLQMNSLRPEDTAVYYCAARGTLGLFTTADSYDYWGQGTLVTVSSGGGGSGGGSGGYLCGPDADETLACYGGGGSGGGLSGRSDAGSPLGLAGSGGGSEVQLVESGGGLVQPGGSLKLSCAASGFTFNKYAMNWVRQASGKGLEWVGRIRSKYNNYATYYADSVKDRFTISRDDSKNTAYLQMNSLKTEDTAVYYCVRHGNFGNSYISYWAYWGQGTLVTVSSGGGGSGGGGSGGGGSQTVVTQEPSFSVSPGGTVTLTCRSSTGAVTSGNYANWVQQTPGQAPRGLIGGTKFLAPGVPDRFSGSILGNKAALTITGAQADDESDYYCVLWYSNRWVFGGGTKLTVLGGGGSQVQLQQSGSELKKPGASVKVSCKASGYTFTNYGMNWVKQAPGQGLKWMGWINTYTGEPTYTDDFKGRFAFSLDTSVSTAYLQISSLKADDTAVYFCARGGFGSSYWYADVWGQGSLVTVSSASTKGPSVFPLAPSSKSTSGGTAALGCLVKDYFPEPVTVSWNSGALTSGVHTFPAVLQSSGLYSLSSVVTVPSSSLGTQTYICNVNHKPSNTKVDKKVEPKSC
notes: Masked polypeptide complex: anti-TROP2 F108A, anti-CD3 with P41S, A49G, N87S ; E227D; CD3 mask YLCGPDADETLACY
As for B4, in the test with Human TROP2 Full length, the “H292 Cytotoxicity EC50 (pM)” value stood at 53200 pM and the “HCT116 Cytotoxicity EC50 (pM)” value was over 100000 pM. In addition, the “CyTROP2 HEK293 EC50 (pM)” value in the test with Cyno TROP2 Full length came to 10400 pM. The molecule also showed an EC50 in [1] of 3510 nM.
